Source: patent US20230118307A1, “THERAPEUTIC USE OF LONG-ACTING CONJUGATE OF TRIPLE AGONIST HAVING ACTIVITIES TO ALL OF GLUCAGON/GLP-1/GIP RECEPTORS FOR LUNG DISEASE” (HANMI PHARM. CO., LTD., priority 2020, published 2023)
Positions of bridges follow the written chain, without caps; N, C: chain ends. Non-standard residues stand in square brackets, D forms with d. No end group written: not given here. *: point of attachment. Acetyl(2-(4-imidazolyl)) = O=C(Cc1c[nH]cn1)*; Aib = CC(C)(N)C(=O)O

B1: triple agonist of SEQ ID NO: 41 (peptide)
peptide: H[Aib]QGTFTSDKSKYLDECAAQDFVQWLLDGGPSSGAPPPS
B2: triple agonist of SEQ ID NO: 40 (peptide)
peptide: H[Aib]QGTFTSDKSKYLDERACQDFVQWLLDGGPSSGAPPPS
B3: triple agonist of SEQ ID NO: 51 (peptide)
peptide: H[Aib]QGTFTSDYSKYLDEKRQKEFVQWLLNTC
modifications: bridge 16-20
B4: triple agonist of SEQ ID NO: 1 (peptide)
peptide: H[Aib]QGTFTSDVSSYLDGQAAKEFIAWLVKGC
B5: triple agonist of SEQ ID NO: 57 (peptide)
peptide: H[Aib]QGTFTSDYSIAMDEIHQKDFVNWLLNTC
modifications: bridge 16-20
B6: triple agonist of SEQ ID NO: 59 (peptide)
peptide: {Acetyl(2-(4-imidazolyl))}-[Aib]QGTFTSDYSICMDEKHQKDFVNWLLNTK
modifications: bridge 15-19
B7: triple agonist of SEQ ID NO: 42 (peptide)
peptide: Y[Aib]QGTFTSDYSKYLDEKRAKEFVQWLLDHHPSSGQPPPSC
modifications: bridge 16-20
B8: triple agonist of SEQ ID NO: 37 (peptide)
peptide: H[Aib]QGTFTSDYSKYLDECRQKEFVQWLLNGGPSSGAPPPSG
modifications: bridge 16-20
B9: triple agonist of SEQ ID NO: 43 (peptide)
peptide: Y[Aib]QGTFTSDYSKYLDEKRAKEFVQWLLDHHCSSGQPPPS
modifications: bridge 16-20
B10: triple agonist of SEQ ID NO: 54 (peptide)
peptide: H[Aib]EGTFTSDYSIAMDEIHQKDFVDWLLAEC
modifications: bridge 16-20
B11: triple agonist of SEQ ID NO: 36 (peptide)
peptide: H[Aib]QGTFTSDYSKYLCEKRQKEFVQWLLNGGPSSGAPPPSG
modifications: bridge 16-20
B12: triple agonist of SEQ ID NO: 34 (peptide)
peptide: H[Aib]QGTFTSDYSKYLDEKRQKEFVNWLLAQKC
modifications: bridge 16-20
B13: triple agonist of SEQ ID NO: 4 (peptide)
peptide: H[Aib]QGTFTSDVSSYLLGQQQKEFIAWLVKGC
B14: triple agonist of SEQ ID NO: 50 (peptide)
peptide: H[Aib]QGTFTSDYSKYLDEKRAKEFVQWLLDHHPSSGQPPPSC
modifications: bridge 16-20
B15: triple agonist of SEQ ID NO: 56 (peptide)
peptide: H[Aib]QGTFTSDYSKYLDEKRQKEFVNWLLAQC
modifications: bridge 16-20
B16: triple agonist of SEQ ID NO: 52 (peptide)
peptide: H[Aib]QGTFTSDYSKYLDEKRQKEFVQWLLDTC
modifications: bridge 16-20

target: human GLP-1 receptor (human, UniProt P43220 24-463); test: cell-based or functional assay

Binder	In vitro Activity Compared to Native Peptide (%) vs. GLP-1
B1	34.3%
B2	75.2%
B3	14.4%
B4	3.2%
B5	11.7%
B6	40.3%
B7	33.9%
B8	236%
B9	12.6%
B10	30.6%
B11	37.4%
B12	19.1%
B13	8.5%
B14	67.4%
B15	57.9%
B16	44.1%

target: human GCG receptor (human, UniProt P47871 26-477); test: cell-based or functional assay
Sequence (P47871 26-477): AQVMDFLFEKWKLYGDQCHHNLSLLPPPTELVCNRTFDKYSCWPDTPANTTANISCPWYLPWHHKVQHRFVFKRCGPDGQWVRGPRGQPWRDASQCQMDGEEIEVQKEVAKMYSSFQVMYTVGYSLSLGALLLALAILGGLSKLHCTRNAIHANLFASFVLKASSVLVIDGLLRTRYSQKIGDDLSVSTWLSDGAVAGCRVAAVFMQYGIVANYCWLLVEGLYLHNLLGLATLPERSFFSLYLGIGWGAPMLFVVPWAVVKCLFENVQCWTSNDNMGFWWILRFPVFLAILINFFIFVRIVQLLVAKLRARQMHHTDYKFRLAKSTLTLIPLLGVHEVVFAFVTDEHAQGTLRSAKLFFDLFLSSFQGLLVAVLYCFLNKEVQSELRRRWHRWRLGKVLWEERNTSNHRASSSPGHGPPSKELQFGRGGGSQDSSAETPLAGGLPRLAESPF

Binder	In vitro Activity Compared to Native Peptide (%) vs. Glucagon
B1	< 0.1%
B2	< 0.1%
B3	2%
B4	< 0.1%
B5	< 0.1%
B6	< 0.1%
B7	206%
B8	6.21%
B9	88.4%
B10	1.4%
B11	0.39%
B12	0.92%
B13	< 0.1%
B14	50.5%
B15	4.9%
B16	7.5%

target: T1, human GIP receptor (human, UniProt P48546 22-466); test: cell-based or functional assay
T1 sequence (looked up): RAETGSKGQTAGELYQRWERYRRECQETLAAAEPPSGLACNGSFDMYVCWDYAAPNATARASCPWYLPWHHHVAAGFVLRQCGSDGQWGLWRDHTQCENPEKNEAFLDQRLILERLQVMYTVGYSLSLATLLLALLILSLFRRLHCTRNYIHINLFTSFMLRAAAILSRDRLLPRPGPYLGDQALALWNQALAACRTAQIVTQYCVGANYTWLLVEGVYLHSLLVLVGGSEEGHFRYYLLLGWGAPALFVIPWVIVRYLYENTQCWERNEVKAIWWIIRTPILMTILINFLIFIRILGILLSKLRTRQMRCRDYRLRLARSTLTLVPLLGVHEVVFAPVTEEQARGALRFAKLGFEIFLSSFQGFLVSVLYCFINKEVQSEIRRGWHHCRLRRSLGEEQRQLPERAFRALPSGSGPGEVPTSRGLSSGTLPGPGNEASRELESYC

Binder	In vitro Activity Compared to Native Peptide (%) vs. GIP
B1	< 0.1%
B2	< 0.1%
B3	0.1%
B4	< 0.1%
B5	0.3%
B6	4%
B7	7.8%
B8	2.2%
B9	3.7%
B10	0.1%
B11	0.2%
B12	0.6%
B13	< 0.1%
B14	2.7%
B15	0.8%
B16	0.3%
